Tests used:
[1] = target: full-length RSV F (TM, residues 1–574) from strain A2 with the DS-Cav1 prefusion-stabilizing mutations (Human respiratory syncytial virus A, …, UniProt P03420, stabilised); assay: cell-based or functional assay
[2] = target: T1, StrepTagII and 6xHis-tagged RSV pre-F (DS-Cav1) in the 9320 RSV F background (Human respiratory syncytial virus B, …, UniProt Q6V2E7, stabilised); assay: SPR; 6xHis-tagged pre-F (DS-Cav1) captured on an NTA sensor chip to ~150 RU, Biacore X100; Fab injected in 3-fold dilutions (5C4:pre-F 9320, 0.460–3000 nM); double-reference subtracted, 1:1 binding model; conditions: both partners purified
T1 construct: respiratory syncytial virus fusion glycoprotein, subtype B strain 9320, stabilised in the prefusion conformation by the DS-Cav1 mutations; also called pre-F 9320; pre-F derived from subtype B strain 9320; source: Freestyle 293-F, transfected, expressed with kifunensine (5 µM); purified from supernatant (Strep-Tactin)

[3] = target: T2, RSV F (+) FdTHS based on strain A2 (wild-type A2 RSV F ectodomain fused to a C-terminal trimerization motif) (Human respiratory syncytial virus A, …, fully glycosylated (N-linked) | fully glycosylated (N-linked)); assay: crystal structure; 5C4 Fab co-expressed with RSV F (+) FdTHS in Expi293, complex purified (Ni-NTA, Strep-Tactin, thrombin, Superose 6); crystal from 0.2 M ammonium acetate, 0.1 M Bis-Tris pH 6.5, 25% PEG 3350; 3.4 Å; conditions: both partners purified
T2 construct: F2 subunit (N-terminal fragment of F0 made by furin-like proteases) of the respiratory syncytial virus fusion glycoprotein, strain A2; ectodomain part of the F1 subunit (C-terminal fragment of F0 made by furin-like proteases) of the respiratory syncytial virus fusion glycoprotein, strain A2; Trimer of F2-F1 heterodimers; pep27 is removed by furin-like proteases; also called pre-F; F glycoprotein; …

[4] = target: T3, full-length RSV F (TM, residues 1–574) from strain A2 with the DS-Cav1 prefusion-stabilizing mutations (Human respiratory syncytial virus A, …, UniProt P03420, stabilised); assay: flow cytometry on cells; Expi293 cells 48 h after transfection with full-length DS-Cav1 RSV F variants, stained with IgG 1 h at 4 °C (D25 Alexa Fluor 488-conjugated; 5C4 detected with FITC goat anti-mouse), fixed; fractional binding relative to motavizumab; conditions: one partner purified
T3 construct: signal peptide in the construct; In cells F0 is cut by furin-like proteases into F2 and F1 (pep27 removed) and forms trimers; also called RSV A2 pre-F; wild-type A2; source: Expi293, transiently transfected (pVRC8400), on the cell surface

B1: 5C4 IgG (antibody, V domains shown)
VH: EVQLQQSGAELVKPGASVKLSCTASGFNIKDTFFHWVKQRPEQGLEWIGRIDPADGHTKYDPKFQGKATITADTSSNTAFLQLSSLTSVDTAVYYCATTITAVVPTPYNAMDYWGQGTSVTVSS
VL: DIVLTQSPASLAVSLGQRTTISCRASESVDSFDNSFIHWYQQKPGQPPKLLIFLASSLESGVPARFSGSGSRTDFTLTIDPVEADDAATYYCQQSNEDPFTFGSGTKLEIK
EC50 of 5C4 neutralisation of mKate-RSV A2 wild-type virus on HEp-2 cells (viral F without DS-Cav1; antibody format not given) [1]: 4 ng/mL

B2: 5C4 Fab (Fab, V domains shown)
VH: B1 VH
VL: B1 VL
notes: 5C4 Fab heavy chain (antibody elicited in mice); 5C4 Fab light chain (murine kappa, Vk3-10); source: Expi293, transiently co-transfected heavy and light chain plasmids; purified from supernatant (CaptureSelect LC-kappa (murine)); for the complex co-expressed with RSV F
binding result [2]: binds
stoichiometry N [3]: 3

B3: D25 IgG (antibody, V domains shown)
VH: QVQLVQSGAEVKKPGSSVMVSCQASGGPLRNYIINWLRQAPGQGPEWMGGIIPVLGTVHYAPKFQGRVTITADESTDTAYIHLISLRSEDTAMYYCATETALVVSTTYLPHYFDNWGQGTLVTVSS
VL: DIQMTQSPSSLSAAVGDRVTITCQASQDIVNYLNWYQQKPGKAPKLLIYVASNLETGVPSRFSGSGSGTDFSLTISSLQPEDVATYYCQQYDNLPLTFGGGTKVEIK
notes: D25 heavy chain (human antibody); the variable domain and CH1 are in the D25 Fab of the cited entry PDB 4JHW; rest of the IgG heavy chain not described; D25 light chain (human antibody); in the D25 Fab of the cited entry PDB 4JHW; also called mAb D25; Alexa Fluor 488-conjugated D25 IgG; copies: 2 + 2
binding result [4]: binds

From publication PMC5707411 (Nature Communications, 2017)
